In paper PMC3801112:

What was measured:
[1] = target: T1, PiCypA (cyclophilin A-like protein) (Piriformospora indica, UniProt C6KGV3 1-164); assay: ITC
[2] = target: T1, PiCypA (cyclophilin A-like protein); assay: ITC; remark: listed apart in the source

## AUAGCCUCAACCG (ssRNA) [13 mer RNA]
[1]
  Kd: 22.5 µM

## AAAAAAAAAAAAA (ssRNA) [13 mer poly-A RNA]
[2]
  binding result: no binding
